{
  "source": "patent US6869925",
  "about": "(Amgen, dated 2005)",
  "key": {"[1]": {"target": "SLPI binding sites on elutriated human peripheral blood monocytes (human)", "assay": "125I-SLPI binding to intact monocytes"}, "[2]": {"target": "SLPI binding sites on U937 cells (human monocyte cell line; intact cells, PMA-induced cells or plasma membranes) (human)", "assay": "125I-SLPI saturation binding, U937 cells plus PMA, *SLPI at 80 pM"}, "[3]": {"target": "SLPI binding sites on U937 cells (human monocyte cell line; intact cells, PMA-induced cells or plasma membranes) (human)", "assay": "competition with 125I-SLPI, intact U937 cells, cold SLPI at 2.6 nM"}, "[4]": {"target": "SLPI binding sites on U937 cells (human monocyte cell line; intact cells, PMA-induced cells or plasma membranes) (human)", "assay": "competition with 125I-SLPI, intact U937 cells, cold SLPI at 270 nM"}, "[5]": {"target": "SLPI binding sites on U937 cells (human monocyte cell line; intact cells, PMA-induced cells or plasma membranes) (human)", "assay": "competition with 125I-SLPI, intact U937 cells, Kd by Cheng-Prusoff"}, "[6]": {"target": "SLPI binding sites on U937 cells (human monocyte cell line; intact cells, PMA-induced cells or plasma membranes) (human)", "assay": "Scatchard plot of 125I-SLPI saturation binding, intact U937 cells"}, "[7]": {"target": "SLPI binding sites on U937 cells (human monocyte cell line; intact cells, PMA-induced cells or plasma membranes) (human)", "assay": "125I-SLPI saturation binding, intact U937 cells, *SLPI at 10,240 pM"}, "[8]": {"target": "SLPI binding sites on U937 cells (human monocyte cell line; intact cells, PMA-induced cells or plasma membranes) (human)", "assay": "competition with 125I-SLPI, intact U937 cells, cold SLPI at 2750 nM"}, "[9]": {"target": "SLPI binding sites on U937 cells (human monocyte cell line; intact cells, PMA-induced cells or plasma membranes) (human)", "assay": "competition with 125I-SLPI, intact U937 cells, competitor at 8.2 nM"}, "[10]": {"target": "SLPI binding sites on U937 cells (human monocyte cell line; intact cells, PMA-induced cells or plasma membranes) (human)", "assay": "125I-SLPI saturation binding, U937 cells minus PMA, *SLPI at 2560 pM"}, "[11]": {"target": "SLPI binding sites on U937 cells (human monocyte cell line; intact cells, PMA-induced cells or plasma membranes) (human)", "assay": "125I-SLPI saturation binding, U937 cells minus PMA, *SLPI at 5120 pM"}, "[12]": {"target": "SLPI binding sites on HuT78 cells (human T cell line) (human)", "assay": "competition with 125I-SLPI, intact HuT78 cells, cold SLPI at 0.80 nM"}, "[13]": {"target": "SLPI binding sites on U937 cells (human monocyte cell line; intact cells, PMA-induced cells or plasma membranes) (human)", "assay": "competition with 125I-SLPI, intact U937 cells, competitor at 0.80 nM"}, "[14]": {"target": "SLPI binding sites on U937 cells (human monocyte cell line; intact cells, PMA-induced cells or plasma membranes) (human)", "assay": "competition with 125I-SLPI, intact U937 cells, competitor at 0.024 nM"}, "[15]": {"target": "SLPI binding sites on U937 cells (human monocyte cell line; intact cells, PMA-induced cells or plasma membranes) (human)", "assay": "competition with 125I-SLPI, U937 plasma membranes, competitor at 2750 nM"}},
  "note": "pKd: −log10 of the molar value.",
  "data": [
    {"substance": "serine leukocyte protease inhibitor (SLPI) (from UniProt P03973 26-132)", "values": [
      {"measurement": "*SLPI concentration at saturation (micrograms/ml)", "setting": "[1]", "value": 0.5},
      {"measurement": "*SLPI concentration required for half-maximal binding", "setting": "[1]", "value": 10, "unit": "nM"},
      {"measurement": "bound pM", "setting": "[2]", "value": 32, "unit": "pM"},
      {"measurement": "bound per free", "setting": "[2]", "value": 0.67},
      {"measurement": "sites bound per cell (sites per cell)", "setting": "[2]", "value": 1910},
      {"measurement": "specific cpm", "setting": "[2]", "value": 339, "unit": "cpm"},
      {"measurement": "% *SLPI BOUND", "setting": "[3]", "value": 55, "unit": "%"},
      {"measurement": "% *SLPI BOUND", "setting": "[4]", "value": 0, "unit": "%"},
      {"measurement": "pKd", "setting": "[5]", "value": 8.70},
      {"measurement": "pKd", "setting": "[6]", "value": 8.70},
      {"measurement": "bound *SLPI (pM)", "setting": "[7]", "value": 463, "unit": "pM"},
      {"measurement": "bound per free", "setting": "[7]", "value": 0.047},
      {"measurement": "sites bound per cell (sites per cell)", "setting": "[7]", "value": 27900},
      {"measurement": "specific cpm", "setting": "[7]", "value": 18500, "unit": "cpm"},
      {"measurement": "% *SLPI BOUND", "setting": "[8]", "value": 0.5, "unit": "%"},
      {"measurement": "% *SLPI BOUND", "setting": "[9]", "value": 22, "unit": "%"},
      {"measurement": "bound *SLPI (pM)", "setting": "[10]", "value": 593, "unit": "pM"},
      {"measurement": "bound per free", "setting": "[10]", "value": 0.301},
      {"measurement": "sites bound per cell (sites per cell)", "setting": "[10]", "value": 35700},
      {"measurement": "specific cpm", "setting": "[10]", "value": 6340, "unit": "cpm"},
      {"measurement": "bound *SLPI (pM)", "setting": "[11]", "value": 748, "unit": "pM"},
      {"measurement": "bound per free", "setting": "[11]", "value": 0.171},
      {"measurement": "sites bound per cell (sites per cell)", "setting": "[11]", "value": 45100},
      {"measurement": "specific cpm", "setting": "[11]", "value": 7990, "unit": "cpm"},
      {"measurement": "% *SLPI BOUND", "setting": "[12]", "value": 62, "unit": "%"},
      {"measurement": "% *SLPI BOUND", "setting": "[13]", "value": 78, "unit": "%"},
      {"measurement": "% *SLPI BOUND", "setting": "[14]", "value": 111, "unit": "%"},
      {"measurement": "CPM *SLPI BOUND", "setting": "[15]", "value": 1680, "unit": "cpm"}
    ]}
  ]
}
